B1: GpH7-A5/GpH7-B3 variant L234_07I/GpL16-k0 (antibody, human IgG1, kappa)
heavy 1: not shown
heavy 2: not shown
light: DIVMTQSPLSLPVTPGEPASISCQASESLVHSNRNTYLHWYLQKPGQSPQLLIYKVSNRFSGVPDRFSGSGSGTDFTLKISRVEAEDVGVYYCSQNTHVPPTFGQGTKVEIERTVAAPSVFIFPPSDEQLKSGTASVVCLLNNFYPREAKVQWKVDNALQSGNSQESVTEQDSKDSTYSLSSTLTLSKADYEKHKVYACEVTHQGLSSPVTKSFNRGEC
notes: He Ab: alteration in one H chain only; also called He Ab
B2: GpH7-A5/GpH7-B3 variant L235_01G/GpL16-k0 (antibody, human IgG1, kappa)
heavy 1: not shown
heavy 2: not shown
light: B1 light
notes: as for B1
B3: GpH7-A5/GpH7-B3 variant L235_11K/GpL16-k0 (antibody, human IgG1, kappa)
heavy 1: not shown
heavy 2: not shown
light: B1 light
notes: as for B1
B4: GpH7-A5/GpH7-B3 variant L234_11K/GpL16-k0 (antibody, human IgG1, kappa)
heavy 1: not shown
heavy 2: not shown
light: B1 light
notes: as for B1
B5: GpH7-A5/GpH7-B3 variant L235_05P/GpL16-k0 (antibody, human IgG1, kappa)
heavy 1: not shown
heavy 2: not shown
light: B1 light
notes: as for B1
B6: GpH7-A5/GpH7-B3 variant L234_15Y/GpL16-k0 (antibody, human IgG1, kappa)
heavy 1: not shown
heavy 2: not shown
light: B1 light
notes: as for B1
B7: GpH7-A5/GpH7-B3 variant L234_19Q/GpL16-k0 (antibody, human IgG1, kappa)
heavy 1: not shown
heavy 2: not shown
light: B1 light
notes: as for B1
B8: GpH7-A5/GpH7-B3 variant L235_03V/GpL16-k0 (antibody, human IgG1, kappa)
heavy 1: not shown
heavy 2: not shown
light: B1 light
notes: as for B1
B9: GpH7-A5/GpH7-B3 variant L235_13S/GpL16-k0 (antibody, human IgG1, kappa)
heavy 1: not shown
heavy 2: not shown
light: B1 light
notes: as for B1
B10: GpH7-A5/GpH7-B3 variant L235_18N/GpL16-k0 (antibody, human IgG1, kappa)
heavy 1: not shown
heavy 2: not shown
light: B1 light
notes: as for B1
B11: GpH7-A5/GpH7-B3 variant L234_12R/GpL16-k0 (antibody, human IgG1, kappa)
heavy 1: not shown
heavy 2: not shown
light: B1 light
notes: as for B1
B12: GpH7-A5/GpH7-B3 variant L235_14T/GpL16-k0 (antibody, human IgG1, kappa)
heavy 1: not shown
heavy 2: not shown
light: B1 light
notes: as for B1
B13: GpH7-A5/GpH7-B3 variant L234_16H/GpL16-k0 (antibody, human IgG1, kappa)
heavy 1: not shown
heavy 2: not shown
light: B1 light
notes: as for B1
B14: GpH7-A5/GpH7-B3 variant L235_19Q/GpL16-k0 (antibody, human IgG1, kappa)
heavy 1: not shown
heavy 2: not shown
light: B1 light
notes: as for B1
B15: GpH7-A5/GpH7-B3 variant S267_01G/GpL16-k0 (antibody, human IgG1, kappa)
heavy 1: not shown
heavy 2: not shown
light: B1 light
notes: heterodimerized IgG1, mutation in one H chain only; also called He Ab
B16: GpH7-A5/GpH7-B3 variant H268_02A/GpL16-k0 (antibody, human IgG1, kappa)
heavy 1: not shown
heavy 2: not shown
light: B1 light
notes: as for B15
B17: GpH7-A5/GpH7-B3 variant H268_10E/GpL16-k0 (antibody, human IgG1, kappa)
heavy 1: not shown
heavy 2: not shown
light: B1 light
notes: as for B15
B18: GpH7-A5/GpH7-B3 variant H268_13S/GpL16-k0 (antibody, human IgG1, kappa)
heavy 1: not shown
heavy 2: not shown
light: B1 light
notes: as for B15
B19: GpH7-A5/GpH7-B3 variant H268_09D/GpL16-k0 (antibody, human IgG1, kappa)
heavy 1: not shown
heavy 2: not shown
light: B1 light
notes: as for B15
B20: GpH7-A5/GpH7-B3 variant K326_02A/GpL16-k0 (antibody, human IgG1, kappa)
heavy 1: not shown
heavy 2: not shown
light: B1 light
notes: as for B15
B21: GpH7-A5/GpH7-B3 variant H268_18N/GpL16-k0 (antibody, human IgG1, kappa)
heavy 1: not shown
heavy 2: not shown
light: B1 light
notes: as for B15
B22: GpH7-A5/GpH7-B3 variant K326_03V/GpL16-k0 (antibody, human IgG1, kappa)
heavy 1: not shown
heavy 2: not shown
light: B1 light
notes: as for B15
B23: GpH7-A5/GpH7-B3 variant K326_05P/GpL16-k0 (antibody, human IgG1, kappa)
heavy 1: not shown
heavy 2: not shown
light: B1 light
notes: as for B15
B24: GpH7-A5/GpH7-B3 variant H268_19Q/GpL16-k0 (antibody, human IgG1, kappa)
heavy 1: not shown
heavy 2: not shown
light: B1 light
notes: as for B15
B25: GpH7-A5/GpH7-B3 variant H268_05P/GpL16-k0 (antibody, human IgG1, kappa)
heavy 1: not shown
heavy 2: not shown
light: B1 light
notes: as for B15
B26: GpH7-A5/GpH7-B3 variant K326_04F/GpL16-k0 (antibody, human IgG1, kappa)
heavy 1: not shown
heavy 2: not shown
light: B1 light
notes: as for B15
B27: GpH7-A5/GpH7-B3 variant H268_01G/GpL16-k0 (antibody, human IgG1, kappa)
heavy 1: not shown
heavy 2: not shown
light: B1 light
notes: as for B15

What follows are binders tested against T1, FcγRIIIa extracellular domain with C-terminal His tag (human, UniProt P08637 17-208) (assay: SPR; He/Con_3a over He/Con_2b (FcγRIIb)).
T1 construct: extracellular domain; also called 3a; FcgRIIIa
T1 sequence (P08637 17-208): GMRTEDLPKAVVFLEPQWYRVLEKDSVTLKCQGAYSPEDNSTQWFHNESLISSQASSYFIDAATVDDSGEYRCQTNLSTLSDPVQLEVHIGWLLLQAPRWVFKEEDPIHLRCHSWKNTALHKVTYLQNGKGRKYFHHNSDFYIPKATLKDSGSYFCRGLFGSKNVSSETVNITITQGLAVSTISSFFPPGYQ

| Binder | He_3a/2b (IIIa/IIb) [ratio] |
| --- | --- |
| B1 | 1.27 |
| B2 | 1.66 |
| B3 | 6.06 |
| B4 | 1.88 |
| B5 | 1.3 |
| B6 | 1.35 |
| B7 | 1.32 |
| B8 | 1.48 |
| B9 | 1.44 |
| B10 | 1.23 |
| B11 | 1.95 |
| B12 | 1.62 |
| B13 | 1.34 |
| B14 | 1.65 |

The binders below were run against T2, FcγRIIb (human, UniProt P31994 43-217) (assay: SPR (Biacore), relative binding vs GpH7-A5/GpH7-B3/GpL16-k0).
T2 construct: extracellular domain; also called 2b
T2 sequence (looked up): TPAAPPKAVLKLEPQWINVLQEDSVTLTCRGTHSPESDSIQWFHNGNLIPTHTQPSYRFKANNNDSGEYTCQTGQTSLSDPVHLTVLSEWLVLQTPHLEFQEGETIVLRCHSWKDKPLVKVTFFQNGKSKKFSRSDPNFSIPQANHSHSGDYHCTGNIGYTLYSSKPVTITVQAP

| Binder | He/Con_2b |
| --- | --- |
| B15 | 105 % of control He Ab (=100) |
| B16 | 167 % of control He Ab (=100) |
| B17 | 230 % of control He Ab (=100) |
| B18 | 160 % of control He Ab (=100) |
| B19 | 239 % of control He Ab (=100) |
| B20 | 139 % of control He Ab (=100) |
| B21 | 156 % of control He Ab (=100) |
| B22 | 175 % of control He Ab (=100) |
| B23 | 126 % of control He Ab (=100) |
| B24 | 133 % of control He Ab (=100) |
| B25 | 116 % of control He Ab (=100) |
| B26 | 155 % of control He Ab (=100) |
| B27 | 144 % of control He Ab (=100) |

Each binder was assayed against T3, FcγRIIa H (human, UniProt P12318 34-217) in the same assay as above.
T3 construct: extracellular domain; also called FcγRIIa type H; 2aH
T3 sequence (looked up): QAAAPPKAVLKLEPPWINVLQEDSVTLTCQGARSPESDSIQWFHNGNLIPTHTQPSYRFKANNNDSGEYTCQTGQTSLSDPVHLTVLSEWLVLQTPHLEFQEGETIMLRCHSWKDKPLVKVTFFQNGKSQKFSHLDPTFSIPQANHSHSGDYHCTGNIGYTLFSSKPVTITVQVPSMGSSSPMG

| Binder | He/Con_2aH |
| --- | --- |
| B15 | 71.3 % of control He Ab (=100) |
| B16 | 114 % of control He Ab (=100) |
| B17 | 124 % of control He Ab (=100) |
| B18 | 112 % of control He Ab (=100) |
| B19 | 133 % of control He Ab (=100) |
| B20 | 106 % of control He Ab (=100) |
| B21 | 112 % of control He Ab (=100) |
| B22 | 97 % of control He Ab (=100) |
| B23 | 98.8 % of control He Ab (=100) |
| B24 | 102 % of control He Ab (=100) |
| B25 | 81.8 % of control He Ab (=100) |
| B26 | 97 % of control He Ab (=100) |
| B27 | 99.2 % of control He Ab (=100) |

These binders were tested against T1, FcγRIIIa extracellular domain with … (assay: SPR, relative to GpH7-A5/GpH7-B3/GpL16-k0).

| Binder | He/Con_3a [control=100] |
| --- | --- |
| B1 | 103 |
| B2 | 58.8 |
| B3 | 38.1 |
| B4 | 30.5 |
| B5 | 71.1 |
| B6 | 130 |
| B7 | 79.8 |
| B8 | 98 |
| B9 | 69.6 |
| B10 | 67.3 |
| B11 | 36.9 |
| B12 | 75.8 |
| B13 | 79.5 |
| B14 | 70.5 |

What follows are binders tested against T4, FcγRIIb extracellular domain with C-terminal His tag (human, UniProt P31994 43-217) (assay: SPR, relative to GpH7-A5/GpH7-B3/GpL16-k0).
T4 construct: extracellular domain; also called 2b; FcgRIIb
T4 sequence (looked up): T2 sequence (looked up)

| Binder | He/Con_2b [control=100] |
| --- | --- |
| B1 | 80.9 |
| B2 | 35.4 |
| B3 | 6.3 |
| B4 | 16.2 |
| B5 | 54.7 |
| B6 | 96.3 |
| B7 | 60.3 |
| B8 | 66.4 |
| B9 | 48.2 |
| B10 | 54.9 |
| B11 | 18.9 |
| B12 | 46.8 |
| B13 | 59.4 |
| B14 | 42.6 |

What follows are binders tested against T3, FcγRIIa H (assay: SPR; He/Con_2aH divided by He/Con_2b (FcγRIIb)).
Procedure: The heterodimerized antibodies He Abs in which one of the H chains was introduced with an alteration were assayed for their binding activities to each activating FcγR and inhibitory FcγR according to the method described in Example 4. […] The activating FcγRs in FIGS. 26, 27, 28, and 29 are FcγRIa, FcγRIIa (R), FcγRIIa (H), and FcγRIIIa, respectively.
Analysis of interaction between objective antibody and the FcγR was carried out using Biacore T100 (GE Healthcare). HBS-EP+ (GE Healthcare) was used as the running buffer, and the measurement temperature was set to 25° C. Chips produced by immobilizing the antigen peptide by the amine coupling method to a Series S Sencor Chip CM5 (GE Healthcare), or alternatively, chips produced by allowing preliminarily biotinylated antigen peptides to interact with and immobilize onto a Series S Sensor Chip SA (certified) (GE Healthcare) were used. Antibodies of interest were captured onto an antigen peptide-immobilized chip, and allowed to interact to each FcγR diluted with running buffer. To regenerate and repeatedly use the chip, the antibodies captured on the chip were washed off by reacting 10 mM glycine-HCl, pH 1.5.

| Binder | He_2aH/2b (IIaH/IIb) [ratio] |
| --- | --- |
| B15 | 0.68 |
| B16 | 0.68 |
| B17 | 0.54 |
| B18 | 0.7 |
| B19 | 0.55 |
| B20 | 0.76 |
| B21 | 0.72 |
| B22 | 0.55 |
| B23 | 0.79 |
| B24 | 0.77 |
| B25 | 0.7 |
| B26 | 0.63 |
| B27 | 0.69 |

— patent US20180155451A1 (published 2018)
